According to publication PMC6555819, “Comprehensive study of nuclear receptor DNA binding provides a revised framework for understanding receptor specificity”:

B1: NRC3_wobSeed20_DR0_G4A_o1 (dsDNA)
DNA 1: GCAAAATGAGGTTAAGATCAGGGAAACAGAATACATGCGATTGACAGCGTAGAATGAAGG
DNA 2: CCTTCATTCTACGCTGTCAATCGCATGTATTCTGTTTCCCTGATCTTAACCTCATTTTGC
B2: NRC3_random_hg19_493_o1 (dsDNA)
DNA 1: GCGCCTAGCAGTCTATACAATTCTGAAGGATGCACCGCGATTGACAGCGTAGAATGAAGG
DNA 2: CCTTCATTCTACGCTGTCAATCGCGGTGCATCCTTCAGAATTGTATAGACTGCTAGGCGC
B3: NRC3_wobSeed33_DR1_A16T_o1 (dsDNA)
DNA 1: GCATCTCTAGGTAAATGTTCAGTGAATCCCGAGGATGCGATTGACAGCGTAGAATGAAGG
DNA 2: CCTTCATTCTACGCTGTCAATCGCATCCTCGGGATTCACTGAACATTTACCTAGAGATGC
B4: NRC3_random_hg19_211_o1 (dsDNA)
DNA 1: GCATCACTATTCCCAACTTCAGGAGTAACCAGTATTGCGATTGACAGCGTAGAATGAAGG
DNA 2: CCTTCATTCTACGCTGTCAATCGCAATACTGGTTACTCCTGAAGTTGGGAATAGTGATGC
B5: NRC3_wobSeed41_DR1_T23G_o1 (dsDNA)
DNA 1: GCATATGTAGGTTAAGGGTCATGCAGGTTGGTTCGCGCGATTGACAGCGTAGAATGAAGG
DNA 2: CCTTCATTCTACGCTGTCAATCGCGCGAACCAACCTGCATGACCCTTAACCTACATATGC
B6: NRC3_wobSeed63_DR2_G11C_o1 (dsDNA)
DNA 1: GCCGAACTAGCTCACCAGGACAGTGAAGAGGTTGGAGCGATTGACAGCGTAGAATGAAGG
DNA 2: CCTTCATTCTACGCTGTCAATCGCTCCAACCTCTTCACTGTCCTGGTGAGCTAGTTCGGC
B7: NRC3_wobSeed119_DR4_A9G_o1 (dsDNA)
DNA 1: GCGGAACGGGGGCATTCGAGTTGATAGCATGGCGATGCGATTGACAGCGTAGAATGAAGG
DNA 2: CCTTCATTCTACGCTGTCAATCGCATCGCCATGCTATCAACTCGAATGCCCCCGTTCCGC
B8: NRC3_wobSeed61_DR2_C21G_o1 (dsDNA)
DNA 1: GCCGTCCAAGGTCAGCAGGTGAGTGAAAGCGACGTGGCGATTGACAGCGTAGAATGAAGG
DNA 2: CCTTCATTCTACGCTGTCAATCGCCACGTCGCTTTCACTCACCTGCTGACCTTGGACGGC
B9: NRC3_random_hg19_481_o1 (dsDNA)
DNA 1: GCCCTTCTTAGTATCTGGGACAACAGGTGTGTGCTAGCGATTGACAGCGTAGAATGAAGG
DNA 2: CCTTCATTCTACGCTGTCAATCGCTAGCACACACCTGTTGTCCCAGATACTAAGAAGGGC
B10: NRC3_wobSeed65_DR2_T6C_o1 (dsDNA)
DNA 1: GCATACGTAGGTTATCGGGTCATTCAGTTTGCGCATGCGATTGACAGCGTAGAATGAAGG
DNA 2: CCTTCATTCTACGCTGTCAATCGCATGCGCAAACTGAATGACCCGATAACCTACGTATGC
B11: NRC3_wobSeed28_DR1_T23A_o1 (dsDNA)
DNA 1: GCCCTACTGGGCCAAAGGTCATAGATTCCAATGCTCGCGATTGACAGCGTAGAATGAAGG
DNA 2: CCTTCATTCTACGCTGTCAATCGCGAGCATTGGAATCTATGACCTTTGGCCCAGTAGGGC
B12: NRC3_wobSeed36_DR1_C4G_o1 (dsDNA)
DNA 1: GCCGGACTGGGGCAAAGGTTACCATACTCAGTACGAGCGATTGACAGCGTAGAATGAAGG
DNA 2: CCTTCATTCTACGCTGTCAATCGCTCGTACTGAGTATGGTAACCTTTGCCCCAGTCCGGC
B13: NRC3_random_hg19_453_o1 (dsDNA)
DNA 1: GCATGATCATGGCTCACTGCAGCCTCGACCTCCAGAGCGATTGACAGCGTAGAATGAAGG
DNA 2: CCTTCATTCTACGCTGTCAATCGCTCTGGAGGTCGAGGCTGCAGTGAGCCATGATCATGC
B14: NRC3_wobSeed125_DR5_A14G_o1 (dsDNA)
DNA 1: GCCCTTACGGGTCGCTGACAGGTTATAGCATTTGGAGCGATTGACAGCGTAGAATGAAGG
DNA 2: CCTTCATTCTACGCTGTCAATCGCTCCAAATGCTATAACCTGTCAGCGACCCGTAAGGGC
B15: NRC3_wobSeed125_DR5_G11T_o1 (dsDNA)
DNA 1: GCCCTTACGGTTCACTGACAGGTTATAGCATTTGGAGCGATTGACAGCGTAGAATGAAGG
DNA 2: CCTTCATTCTACGCTGTCAATCGCTCCAAATGCTATAACCTGTCAGTGAACCGTAAGGGC
B16: NRC3_wobSeed135_DR5_A14C_o1 (dsDNA)
DNA 1: GCCGAACTAGGTCCTTGACAGGACAGTGAATAGTAAGCGATTGACAGCGTAGAATGAAGG
DNA 2: CCTTCATTCTACGCTGTCAATCGCTTACTATTCACTGTCCTGTCAAGGACCTAGTTCGGC
B17: NRC3_wobSeed90_DR3_G9C_o1 (dsDNA)
DNA 1: GCCATACACGGTCAGCTAGGCCAGAGTAGGGACGGCGCGATTGACAGCGTAGAATGAAGG
DNA 2: CCTTCATTCTACGCTGTCAATCGCGCCGTCCCTACTCTGGCCTAGCTGACCGTGTATGGC
B18: NRC3_random_hg19_333_o1 (dsDNA)
DNA 1: GCATGCCTGTAATCCCAGCTACTTGGGAGGCTGAGAGCGATTGACAGCGTAGAATGAAGG
DNA 2: CCTTCATTCTACGCTGTCAATCGCTCTCAGCCTCCCAAGTAGCTGGGATTACAGGCATGC
B19: NRC3_wobSeed38_DR1_T12A_o1 (dsDNA)
DNA 1: GCCCTGCTAGGACAATGGTCAGCTAAAGCAGCTCGCGCGATTGACAGCGTAGAATGAAGG
DNA 2: CCTTCATTCTACGCTGTCAATCGCGCGAGCTGCTTTAGCTGACCATTGTCCTAGCAGGGC
B20: NRC3_random_hg19_85_o1 (dsDNA)
DNA 1: GCTGGCTGGCACCTGTGTTCCAACAACTTGAGAGAGGCGATTGACAGCGTAGAATGAAGG
DNA 2: CCTTCATTCTACGCTGTCAATCGCCTCTCTCAAGTTGTTGGAACACAGGTGCCAGCCAGC
B21: NRC3_random_hg19_11_o1 (dsDNA)
DNA 1: GCTGAGTCAGAACCACCCAGCTAAGCCACCATCAAAGCGATTGACAGCGTAGAATGAAGG
DNA 2: CCTTCATTCTACGCTGTCAATCGCTTTGATGGTGGCTTAGCTGGGTGGTTCTGACTCAGC
B22: NRC3_wobSeed32_DR1_G18C_o1 (dsDNA)
DNA 1: GCTCTTGTAGATCAAAGCTTAAGAAAGCCGAAGCCTGCGATTGACAGCGTAGAATGAAGG
DNA 2: CCTTCATTCTACGCTGTCAATCGCAGGCTTCGGCTTTCTTAAGCTTTGATCTACAAGAGC
B23: NRC3_random_hg19_181_o1 (dsDNA)
DNA 1: GCGCAGCATTTGTGTGCATGTATGCTGTGTGTATGCGCGATTGACAGCGTAGAATGAAGG
DNA 2: CCTTCATTCTACGCTGTCAATCGCGCATACACACAGCATACATGCACACAAATGCTGCGC
B24: NRC3_wobSeed13_DR0_G10C_o1 (dsDNA)
DNA 1: GCCGTCCAACGTCAAGGTCAGTGAAAGAGACTCGAAGCGATTGACAGCGTAGAATGAAGG
DNA 2: CCTTCATTCTACGCTGTCAATCGCTTCGAGTCTCTTTCACTGACCTTGACGTTGGACGGC
B25: NRC3_wobSeed50_DR2_A22C_o1 (dsDNA)
DNA 1: GCCCTAGTTGGTCAGGAGGTCCCACACCGGATATGAGCGATTGACAGCGTAGAATGAAGG
DNA 2: CCTTCATTCTACGCTGTCAATCGCTCATATCCGGTGTGGGACCTCCTGACCAACTAGGGC
B26: NRC3_random_hg19_220_o1 (dsDNA)
DNA 1: GCTTGGTTGCAAGCAATACAAAGCAACTCTTGCTAAGCGATTGACAGCGTAGAATGAAGG
DNA 2: CCTTCATTCTACGCTGTCAATCGCTTAGCAAGAGTTGCTTTGTATTGCTTGCAACCAAGC
B27: NRC3_random_hg19_164_o1 (dsDNA)
DNA 1: GCCATGAGGACCTGCAGCGCAATGACCTCCGAGGCAGCGATTGACAGCGTAGAATGAAGG
DNA 2: CCTTCATTCTACGCTGTCAATCGCTGCCTCGGAGGTCATTGCGCTGCAGGTCCTCATGGC
B28: NRC3_wobSeed76_DR3_A18C_o1 (dsDNA)
DNA 1: GCCCTACTGGGCCAAAACGGTCATTGATGCCGATAAGCGATTGACAGCGTAGAATGAAGG
DNA 2: CCTTCATTCTACGCTGTCAATCGCTTATCGGCATCAATGACCGTTTTGGCCCAGTAGGGC
B29: NRC3_random_hg19_81_o1 (dsDNA)
DNA 1: GCGACTTTGTTGCCTAGGCTGGAATCTATCATGGCTGCGATTGACAGCGTAGAATGAAGG
DNA 2: CCTTCATTCTACGCTGTCAATCGCAGCCATGATAGATTCCAGCCTAGGCAACAAAGTCGC
B30: NRC3_wobSeed10_DR0_A9C_o1 (dsDNA)
DNA 1: GCATCGAACGGTCGAGGTGAGTATAGAGAAAGGGAAGCGATTGACAGCGTAGAATGAAGG
DNA 2: CCTTCATTCTACGCTGTCAATCGCTTCCCTTTCTCTATACTCACCTCGACCGTTCGATGC
B31: NRC3_wobSeed72_DR2_G11C_o1 (dsDNA)
DNA 1: GCTCGAGTAGCTTACGGGGGCATTCAGGGATGAAGAGCGATTGACAGCGTAGAATGAAGG
DNA 2: CCTTCATTCTACGCTGTCAATCGCTCTTCATCCCTGAATGCCCCCGTAAGCTACTCGAGC
B32: NRC3_wobSeed4_DR0_G17C_o1 (dsDNA)
DNA 1: GCCCTACTGGGCCAAGCTCATTGATCAGTCAAAGCAGCGATTGACAGCGTAGAATGAAGG
DNA 2: CCTTCATTCTACGCTGTCAATCGCTGCTTTGACTGATCAATGAGCTTGGCCCAGTAGGGC
B33: NRC3_wobSeed64_DR2_C13G_o1 (dsDNA)
DNA 1: GCTAGCCTAGGTGATTGGGCCAGTATAGTACGCATCGCGATTGACAGCGTAGAATGAAGG
DNA 2: CCTTCATTCTACGCTGTCAATCGCGATGCGTACTATACTGGCCCAATCACCTAGGCTAGC

Each binder was assayed against PPARg:RXRa (Homo sapiens, UniProt P37231;P19793 full;full) (assay: no ligand; PBM; 180 nM : 90 nM RXRa; PBS pH 7.4, 2% milk, 0.02% Triton X-100, 1 mM DTT, BSA, 0.4 mg/ml salmon testes DNA). Conditions: tags: His kept;His cleaved; copies: 1;1; label: surface-attached array probe.
PPARg:RXRa, sequence (P37231 29-505, chain 1 of 2): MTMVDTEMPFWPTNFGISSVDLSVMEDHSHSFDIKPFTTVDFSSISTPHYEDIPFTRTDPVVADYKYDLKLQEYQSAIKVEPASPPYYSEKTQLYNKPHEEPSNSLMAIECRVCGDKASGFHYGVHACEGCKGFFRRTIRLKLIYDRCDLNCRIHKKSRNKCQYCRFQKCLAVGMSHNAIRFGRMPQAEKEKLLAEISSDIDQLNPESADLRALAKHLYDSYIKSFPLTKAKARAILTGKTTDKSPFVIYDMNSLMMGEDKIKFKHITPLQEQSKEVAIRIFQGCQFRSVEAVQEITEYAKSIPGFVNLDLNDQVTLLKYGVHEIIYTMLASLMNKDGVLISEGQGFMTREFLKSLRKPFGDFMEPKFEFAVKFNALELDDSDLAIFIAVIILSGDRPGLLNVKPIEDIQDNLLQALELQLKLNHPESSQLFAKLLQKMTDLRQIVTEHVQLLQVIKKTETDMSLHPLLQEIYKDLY
PPARg:RXRa, sequence (P19793 whole entry, chain 2 of 2): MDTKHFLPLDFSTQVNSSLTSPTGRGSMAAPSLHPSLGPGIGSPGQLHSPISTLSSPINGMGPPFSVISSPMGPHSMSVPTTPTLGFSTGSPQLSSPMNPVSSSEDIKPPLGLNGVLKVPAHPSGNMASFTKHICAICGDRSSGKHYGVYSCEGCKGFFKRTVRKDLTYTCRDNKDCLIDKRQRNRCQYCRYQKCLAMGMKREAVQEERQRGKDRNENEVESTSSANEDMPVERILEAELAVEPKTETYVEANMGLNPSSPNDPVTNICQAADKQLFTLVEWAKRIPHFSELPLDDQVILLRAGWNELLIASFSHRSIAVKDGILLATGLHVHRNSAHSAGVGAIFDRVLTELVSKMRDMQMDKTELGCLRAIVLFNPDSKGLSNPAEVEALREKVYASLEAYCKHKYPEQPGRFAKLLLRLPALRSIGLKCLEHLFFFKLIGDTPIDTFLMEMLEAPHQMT
In the case of B1, the binding signal is reported as 3.12 PBM z-score against 500 random probes. In the case of B2, the binding signal is reported as 0.38 PBM z-score against 500 random probes. In the case of B3, the binding signal is reported as 0.4 PBM z-score against 500 random probes. B4 was tested, and the binding signal was 0.12 PBM z-score against 500 random probes. In the case of B5, the binding signal is reported as 12.4 PBM z-score against 500 random probes. For B6, the binding signal was 0.17 PBM z-score against 500 random probes. In the case of B7, the binding signal is reported as 3 PBM z-score against 500 random probes. For B8, the binding signal was 3.18 PBM z-score against 500 random probes. In the case of B9, the binding signal is reported as 0.31 PBM z-score against 500 random probes. In the case of B10, the binding signal is reported as 3.06 PBM z-score against 500 random probes. B11 was tested, and the binding signal was 12.8 PBM z-score against 500 random probes. B12 was tested, and the binding signal was 12.2 PBM z-score against 500 random probes. With B13 the binding signal was 0.09 PBM z-score against 500 random probes. For B14, the binding signal was 0.49 PBM z-score against 500 random probes. With B15 the binding signal was 0.49 PBM z-score against 500 random probes. B16 was tested, and the binding signal was 0.43 PBM z-score against 500 random probes. For B17, the binding signal was 0.49 PBM z-score against 500 random probes. In the case of B18, the binding signal is reported as -0.21 PBM z-score against 500 random probes. For B19, the binding signal was 0.3 PBM z-score against 500 random probes. In the case of B20, the binding signal is reported as -0.09 PBM z-score against 500 random probes. With B21 the binding signal was -0.05 PBM z-score against 500 random probes. B22 was tested, and the binding signal was -0.29 PBM z-score against 500 random probes. For B23, the binding signal was -0.13 PBM z-score against 500 random probes. For B24, the binding signal was 0.38 PBM z-score against 500 random probes. With B25 the binding signal was 0.46 PBM z-score against 500 random probes. In the case of B26, the binding signal is reported as -0.18 PBM z-score against 500 random probes. In the case of B27, the binding signal is reported as 0.42 PBM z-score against 500 random probes. With B28 the binding signal was 0.35 PBM z-score against 500 random probes. In the case of B29, the binding signal is reported as -0.16 PBM z-score against 500 random probes. For B30, the binding signal was 0.48 PBM z-score against 500 random probes. B31 was tested, and the binding signal was 0.35 PBM z-score against 500 random probes. B32 was tested, and the binding signal was 0.05 PBM z-score against 500 random probes. B33 was tested, and the binding signal was 0.42 PBM z-score against 500 random probes.
